This is an account of results in patent US20240239890A1 (Chugai, published 2024).

First the molecules themselves.
T1: Human RNF43 extracellular domain (amino acids 1-190) with a Flag tag on its C terminus (human, UniProt Q68DV7 24-190)
T1 construct: also called recombinant human RNF43; human RNF43 ECD
T1 sequence: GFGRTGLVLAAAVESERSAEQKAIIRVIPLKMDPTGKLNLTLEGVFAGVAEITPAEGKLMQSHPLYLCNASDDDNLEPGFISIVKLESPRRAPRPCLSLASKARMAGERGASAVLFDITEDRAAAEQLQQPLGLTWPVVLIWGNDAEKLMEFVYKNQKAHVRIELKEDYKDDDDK

B1: RNN0198oo (antibody, human IgG1, kappa, N297A, V domains shown)
VH: QEQLVESGGGLVQPEGSLTLTCKASGLDFSSSYWMCWVRQAPGKGLEWIGCIYTGSSGSTYYASWAKGRFTISKTSSTTVTLQMTSLTAADTATYFCARTGSRYWNYFELWGPGTLVTVSS
VL: DVVMTQTPPSVSAAVGGTVTIKCQASQSIYRGLAWYQQKPGQPPNLLIYSASTLASGVPSRFSGSGSGTEYTLTISDLECADAATYYCQSYYYSSSNGWPFGGGTKVEIKR
notes: Rabbit variable regions recombined with BS03aHis heavy-chain constant region and hk0MC light-chain constant region; also called anti-RNF43 monospecific antibody
B2: RNN0242nn (antibody, human IgG1, kappa, N297A)
heavy: QQQLEEYGGDLVQPEGSLTLTCKASGLDFSSSYWMCWVRQAPGKGLEWIACIYTGSSGSTSYASWAKGRFTISKTSSTTVTLQMTSLTAADTATYFCARDYDYTAYAYGIMSLWGPGTLVTVSSASTKGPSVFPLAPSSRSTSESTAALGCLVKDYFPEPVTVSWNSGALTSGVHTFPAVLQSSGLYSLSSVVTVPSSSLGTKTYTCNVDHKPSNTKVDKRVEPKSCDKTHTCPPCPAPELRRGPKVFLFPPKPKDTLMISRTPEVTCVVVDVSQEDPEVQFNWYVDGVEVHNAKTKPREEQFASTYRVVSVLTVLHQDWLNGKEYKCKVSNKGLPSSIEKTISKAKGQPREPQVYTLPPSREEMTKNQVSLTCLVKGFYPSDIAVEWESNGQPENNYKTTPPYLDSDGSFFLYSKLTVDKSRWQQGNVFSCSVMHEALHNHYTQESLSLSPHHHHHHHH
light: AEIVMTQTPSSKSAAVGDTVTIKCQASQSITSYLSWYQQKPGQPPKLLIYRASTLASGVPSRFKGSGSGTQFTLTISDLECADAATYYCQSNYGSYSTNYGVTFGGGTKVEIKRTVAAPSVFIFPPSDEQLKSGTASVVCLLNNFYPREAKVQWKVDNALQSGNSQESVTEQDSKDCTYSLSSTLTLSKADYEKHKVYACEVTHQGLSSPVTKSFNRGEC
notes: as for B1
B3: RNN0207ii (antibody, human IgG1, kappa, N297A)
heavy: QEQLEESGGRLVTPGGSLTLTCTASGFSLSSYVISWVRQAPGEGLEYIGYVSTGGSPYYASWAKGRFTISRTSTAVDLKMTSLTASDTATYFCARYGYLDYSGLDLWGQGTLVTVSSASTKGPSVFPLAPSSRSTSESTAALGCLVKDYFPEPVTVSWNSGALTSGVHTFPAVLQSSGLYSLSSVVTVPSSSLGTKTYTCNVDHKPSNTKVDKRVEPKSCDKTHTCPPCPAPELRRGPKVFLFPPKPKDTLMISRTPEVTCVVVDVSQEDPEVQFNWYVDGVEVHNAKTKPREEQFASTYRVVSVLTVLHQDWLNGKEYKCKVSNKGLPSSIEKTISKAKGQPREPQVYTLPPSREEMTKNQVSLTCLVKGFYPSDIAVEWESNGQPENNYKTTPPYLDSDGSFFLYSKLTVDKSRWQQGNVFSCSVMHEALHNHYTQESLSLSPHHHHHHHH
light: AQVLTQTPSSTSTAVGGTVTINCQSSQSVYEYNHLSWFQQKPGQPPKLLIYGASTLASGVPSRFKGSGSGTQFTLTISDLECDDAATYYCQGAYYGVVDTFGGGTKVEIKRTVAAPSVFIFPPSDEQLKSGTASVVCLLNNFYPREAKVQWKVDNALQSGNSQESVTEQDSKDCTYSLSSTLTLSKADYEKHKVYACEVTHQGLSSPVTKSFNRGEC
notes: as for B1
B4: RNN0192nn (antibody, human IgG1, kappa, N297A)
heavy: QEQLVESGGGLVQPEGSLTLTCTASGFSFSSRYYMCWVRQAPGKGLEWIGCIYTGSGSTYYASWAKGRVTISKTSSTTVTLQMTSLTAADTATYFCAREAGSFNLWGPGTLVTVSSASTKGPSVFPLAPSSRSTSESTAALGCLVKDYFPEPVTVSWNSGALTSGVHTFPAVLQSSGLYSLSSVVTVPSSSLGTKTYTCNVDHKPSNTKVDKRVEPKSCDKTHTCPPCPAPELRRGPKVFLFPPKPKDTLMISRTPEVTCVVVDVSQEDPEVQFNWYVDGVEVHNAKTKPREEQFASTYRVVSVLTVLHQDWLNGKEYKCKVSNKGLPSSIEKTISKAKGQPREPQVYTLPPSREEMTKNQVSLTCLVKGFYPSDIAVEWESNGQPENNYKTTPPYLDSDGSFFLYSKLTVDKSRWQQGNVFSCSVMHEALHNHYTQESLSLSPHHHHHHHH
light: DVVMTQTPASVSEPVGGTVTIKCQASQSIYSGLAWYQQKPGQPPKLLIYSASKLASGVPSRFKGSGSGTEYTLTISDLECADAATYYCQNYYYGISNGWTFGGGTKVEIKRTVAAPSVFIFPPSDEQLKSGTASVVCLLNNFYPREAKVQWKVDNALQSGNSQESVTEQDSKDCTYSLSSTLTLSKADYEKHKVYACEVTHQGLSSPVTKSFNRGEC
notes: as for B1
B5: RNN0193jj (antibody, human IgG1, kappa, N297A)
heavy: QSLEESGGDLVKPGASLTLTCTASGFSFSNNYWICWVRQAPGKGPEWIACIYTGDGDTDYASWAKGRFTISKTSSTTVTLQMTSLTAADTATYFCAREAGTVDGVWNYVFNLWGPGTLVTVSSASTKGPSVFPLAPSSRSTSESTAALGCLVKDYFPEPVTVSWNSGALTSGVHTFPAVLQSSGLYSLSSVVTVPSSSLGTKTYTCNVDHKPSNTKVDKRVEPKSCDKTHTCPPCPAPELRRGPKVFLFPPKPKDTLMISRTPEVTCVVVDVSQEDPEVQFNWYVDGVEVHNAKTKPREEQFASTYRVVSVLTVLHQDWLNGKEYKCKVSNKGLPSSIEKTISKAKGQPREPQVYTLPPSREEMTKNQVSLTCLVKGFYPSDIAVEWESNGQPENNYKTTPPYLDSDGSFFLYSKLTVDKSRWQQGNVFSCSVMHEALHNHYTQESLSLSPHHHHHHHH
light: AQVLTQTPSPVSAAVGGTVTISCQSSQSVYNDNLAWFQQKPGQPPKLLIYDASTLASGVPSRFKGSGSGTQFTLTISKLQCDDAATYYCQGVYIGHIFTFGGGTKVEIKRTVAAPSVFIFPPSDEQLKSGTASVVCLLNNFYPREAKVQWKVDNALQSGNSQESVTEQDSKDCTYSLSSTLTLSKADYEKHKVYACEVTHQGLSSPVTKSFNRGEC
notes: as for B1
B6: RNN0187jj (antibody, human IgG1, kappa, N297A)
heavy: QSLEESGGDLVKPGASLTLTCTASGFSFNSAYYMCWVRQAPGKGLEWIGCIYTGSGSTYYASWAKGRFTISKTSSTTVTLQMTSLTVADTATYFCARSGVSTYYTLWGPGTLVTVSSASTKGPSVFPLAPSSRSTSESTAALGCLVKDYFPEPVTVSWNSGALTSGVHTFPAVLQSSGLYSLSSVVTVPSSSLGTKTYTCNVDHKPSNTKVDKRVEPKSCDKTHTCPPCPAPELRRGPKVFLFPPKPKDTLMISRTPEVTCVVVDVSQEDPEVQFNWYVDGVEVHNAKTKPREEQFASTYRVVSVLTVLHQDWLNGKEYKCKVSNKGLPSSIEKTISKAKGQPREPQVYTLPPSREEMTKNQVSLTCLVKGFYPSDIAVEWESNGQPENNYKTTPPYLDSDGSFFLYSKLTVDKSRWQQGNVFSCSVMHEALHNHYTQESLSLSPHHHHHHHH
light: DVVMTQTPSSVSAAVGGTVTIKCQASQSIYSGLAWYQQKPGQPPKLLIYGASTLASGVPSRFKGSGSGTEYTLTISGVQCDDAATYYCQNNYYTPSNGWAFGGGTKVEIKRTVAAPSVFIFPPSDEQLKSGTASVVCLLNNFYPREAKVQWKVDNALQSGNSQESVTEQDSKDCTYSLSSTLTLSKADYEKHKVYACEVTHQGLSSPVTKSFNRGEC
notes: as for B1
B7: RNN0191kk (antibody, human IgG1, kappa, N297A, V domains shown)
VH: QSLEESGGRLVTPGGSLTLTCTASGFSLSSYAIGWVRQAPGKGLEYVGIIERNDKTAYASWAKGRFTISRTSTTVDLKMTSLTTEDTATYFCARGYLDNSPLWGPGTLVTVSS
VL: AIEMTQTPASVSAAVGGTVTINCQSSQSVGDNIWLGWYQQKPGQPPKLLIRYASTLASGVPSRFKGSGSGTQFTLTISDLECDDAATYYCAGAYNGLIYSFGGGTKVEIKR
notes: as for B1

The target of the test is T1, Human RNF43 extracellular domain (amino …). The test can be described thus: SPR, Biacore T200, antibody captured by anti-human Fc, RNF43 as analyte, pH 7.4, 25 C. The protocol:
The affinity of the anti-RNF43 monospecific antibodies towards human RNF43 at pH 7.4 was determined at 25 degrees C. using the Biacore T200 instrument (GE Healthcare). Anti-human Fc (GE Healthcare) was immobilized onto all flow cells of a CM4 sensor chip using an amine coupling kit (GE Healthcare). All antibodies and analytes were prepared in ACES at pH 7.4 containing 20 mM ACES, 150 mM NaCl, 0.05% Tween 20, 0.005% NaN₃. Each antibody was captured onto the sensor surface by anti-human Fc. Antibody capture levels were aimed at 312 resonance unit (RU). Recombinant human RNF43 was injected at 200 nM, 50 nM, and 12.5 nM prepared by a four-fold serial dilution, followed by dissociation. The sensor surface was regenerated each cycle with 3M MgCl2. Binding affinity was determined by processing and fitting the data to a 1:1 binding model using the Biacore T200 Evaluation software, version 2.0 (GE Healthcare).
For orientation: SPR reads the build-up and loss of mass on a sensor chip optically.
As usually defined, the Kd is the equilibrium constant for the complex coming apart. Usually koff stands for a measure of how fast the partners let go of each other. High values mean a short-lived complex, low ones a long-lived complex. For orientation: kon means the rate constant with which the complex forms. Low readings indicate slow association, high ones fast association. For the molecule B1, binding was characterised by a dissociation constant (Kd) of 1.11 nM, the koff amounted to 0.00291 s⁻¹ and the kon amounted to 2.63e+06 M⁻¹ s⁻¹.

In the case of B2, binding was put at a Kd of 33.3 nM, the off-rate (koff) was 0.0235 s⁻¹ and the kon came to 704000 M⁻¹ s⁻¹.

As to B3, the Kd turned out to be 73.1 nM, the koff amounted to 0.106 s⁻¹ and the kon came to 1.45e+06 M⁻¹ s⁻¹.

On to B4, for which the Kd worked out at 0.928 nM, the dissociation rate constant (koff) turned out to be 0.00558 s⁻¹ and the kon turned out to be 6.02e+06 M⁻¹ s⁻¹.

B5 had a Kd of 63.5 nM, an off-rate (koff) of 0.0458 s⁻¹ and an association rate constant (kon) of 721000 M⁻¹ s⁻¹.

As to B6, the affinity, expressed as Kd, was 17 nM; the koff was found to be 0.0467 s⁻¹; the kon is 2.75e+06 M⁻¹ s⁻¹.

The molecule B7 had a Kd of 71.1 nM, a koff of 0.294 s⁻¹ and a kon of 4.14e+06 M⁻¹ s⁻¹.
